No end group written: not given here.
Experiments:
SW480 tumor spheroids = assay: Cell viability (MTS) of SW480 tumor spheroids cultured in hydrogels; format: cell-based, human; details: Day 7; hybrid hydrogels peptide_0.25%/G_3% (FIG. 12B)
Protocol: Human hepatocellular carcinoma HepG2 and human colorectal adenocarcinoma SW480 were cultivated in Dulbecco's Modified Eagle Medium (DMEM), supplemented by 10% Fetal Bovine Serum and 1% Penicillin, incubated at 37° C., 5% CO2. To prepare the tumor spheroids, 200 μL of cell suspension (3500 cells/mL) were seeded per well onto 96-well ultralow adhesion round bottom plates (Corning, U.S.A.). After which, the plate was centrifuged for 5 min at 1500 rpm) and incubated at 37° C. for 2-3 days for the cells to assemble into tumor spheroids. The IVK8/gelatin hydrogels were then prepared according to the steps in Section 2.2 and was used right after mixing the peptide and gelatin together. A positive control group was set up using the basement membrane product, Geltrex™ (Thermofisher, U.S.A.). Geltrex was kept in an ice bath during the experiment. The hydrogels were transferred to the tumor spheroids by first removing 150 μL of the spent medium. Subsequently, 70 μL of the hydrogels were added per well and the samples and incubated at 37° C. for 30 min before 100 μL were added to each well. The spent medium was replaced once every 2 to 3 days by removing 80 μL medium and adding 80 μL fresh medium. The growth of the tumor spheroids was monitored over time using DMil inverted light microscope (Leica, U.S.A.).
The viability of tumor spheroids cultured in the hydrogels for 7 days was determined by the CellTiter 96 AQueous One Solution Cell Proliferation Assay (MTS) (Promega, U.S.A.). Briefly, 80 μL of the spent medium was removed from each well containing the tumor spheroids. Next, 80 μL containing DMEM: MTS at 1:1 volume ratio was then added back into the wells. The plate was then incubated at 37° C. for 4.5 h. After which, the medium was pipetted several times to break up any aggregates that may be present and 100 μL of this solution was transferred to a fresh 96 well plate. The absorbance of the samples was measured at wavelength 490 nm using a microplate reader (Tecan, Switzerland).

[1] = Transparency and clarity of hydrogels (tube images, light microscopy); format: physicochemical; details: SW480 spheroids Day 7 (FIG. 13)
Protocol: IVK8 was dissolved in 300 mM sucrose sterile solution at a peptide concentration of 1.0% wt/vol. and stored at 4° C. until required. The peptide remains a solution at cold conditions (4° C. or ice bath). Gelatin was dissolved using sterile DI water at 60 mg/ml at 60° C. To form the hydrogel, gelatin was removed from the warm water bath and the cold IVK8 solution was added to the gelatin. DMEM was then added to this mixture at a volume ratio of 3:7 DMEM: mixture and was left to stand at 37° C. for 10 min for gelation to occur. The procedure for preparing IVK8 hydrogels was the same. Once formed, the gels remain stable at temperatures between 25 to 37° C. Similarly, the other peptide/gelatin hydrogels may be prepared by the same method described for IVK8, further detail and modifications of the general procedure may be found in WO2021015675. For example. IIK8, ILK8, IVK12, and IIK12 may be used instead of IVK8 to prepare the peptide/gelatin hydrogel. It may be observed from FIGS. 10A to 10 that shorter peptides result in clearer hydrogels. […] The high opacity of IVK12_0.25%/Gelatin_3% (FIG. 11D) and IIK12_0.25%/Gelatin_3% (FIG. 11E) may make them less suitable for 3D culture of tumor spheroid due to difficulties in observing the spheroids.

[2] = Gelation time by vial tilting method; format: physicochemical; details: 2% wt/vol.
Protocol: Vial tilting method was applied to determine the gelation time of the hydrogels. […] Rheology experiments were performed on a control-strain rheometer (ARES G2, TA instruments), as described previously. Briefly, a parallel plate measuring geometry (8 mm diameter, gap 1 mm) with oscillatory strain of 1% and the dynamic storage modulus (G′) and loss modulus (G″) were examined as a function of frequency from 1 to 100 rad/s. In addition, a flow sweep to study the viscosity changes as a function of shear rate of hydrogel samples.

[3] = Water retention of IVK8 peptide hydrogel; format: physicochemical; details: peptide hydrogel in water at high concentrations

| Sequence | cell viability of SW480 tumor spheroids compared to Geltrex (SW480 tumor spheroids) | opacity of peptide/gelatin hybrid hydrogel in spheroid culture [1] | gelation time ([2]; 37° C.) | gelation time ([2]; room temperature (23-24° C.)) | water retention [3] |
| --- | --- | --- | --- | --- | --- |
| IEIEIRIK (IEIEIRIK-NH2) [IIK8, self-assembling peptide] | no significant difference | least opaque |  |  |  |
| IELEIRLK (IELEIRLK-NH2) [ILK8, self-assembling peptide] | no significant difference | more opaque |  |  |  |
| IEVEIRVK (IEVEIRVK-NH2) [IVK8, self-assembling peptide] | no significant difference | least opaque | less than 30 min | ≤ 60 min | ~99% |
| IRIKIEIEIRIK (IRIKIEIEIRIK-NH2) [IIK12, self-assembling peptide] | significantly lower viability | more opaque |  |  |  |
| IRVKIEVEIRVK (IRVKIEVEIRVK-NH2) [IVK12, self-assembling peptide] | significantly lower viability | most opaque |  |  |  |

Source: patent US20240352093A1, “PEPTIDE AND GELATIN HYBRID HYDROGELS AS ECONOMICAL ALTERNATIVES TO COMMON BASEMENT-MEMBRANE MATRICES” (AGENCY FOR SCIENCE, TECHNOLOGY AND RESEARCH, priority 2021, published 2024)
